These results are taken from US20160193281A1 (BLUEBERRY THERAPEUTICS, published 2016).

Assay [1] deals with T1, MAP kinase p38α (non-phosphorylated, OH-p38α) as used in the Biacore inhibition in solution assay (human, UniProt Q16539 2-360, limits assumed).
T1 construct: The text says the chip was calibrated with nonphosphorylated or phosphorylated p38α; also called MAPK14; SAPK2a
As to the kind of experiment: Biacore 3000 inhibition in solution assay; p38α pre-incubated with peptide, free p38α captured on immobilised ureidoquinazoline compound; Biacore inhibition in solution assay.

Assay [2] has as its target T2, uniformly 15N,2H-labelled 6His-MAP kinase p38α (human, UniProt Q16539 2-360, limits assumed, uniformly 15N,2H-labelled).
T2 construct: not shown: 6His tag
As to the kind of experiment: NMR 1H-15N TROSY-HSQC titration, chemical shift changes in slow exchange.

In assay [3] the target is T3, MAP kinase p38α, 6-his C-myc tagged protein expressed in E. coli (human, UniProt Q16539 2-360, limits assumed). Description: cell-based or functional assay.
T3 sequence (Q16539 2-360 limits assumed): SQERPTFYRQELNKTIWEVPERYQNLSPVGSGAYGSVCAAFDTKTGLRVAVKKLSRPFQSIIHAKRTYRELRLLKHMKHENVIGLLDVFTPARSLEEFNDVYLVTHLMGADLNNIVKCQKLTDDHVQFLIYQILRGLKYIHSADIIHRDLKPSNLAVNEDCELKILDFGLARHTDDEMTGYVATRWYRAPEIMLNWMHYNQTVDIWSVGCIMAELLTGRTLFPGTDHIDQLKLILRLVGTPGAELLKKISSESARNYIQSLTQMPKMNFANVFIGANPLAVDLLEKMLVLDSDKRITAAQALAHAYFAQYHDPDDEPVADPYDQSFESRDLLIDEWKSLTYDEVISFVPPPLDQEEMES
The target in the next assay is p38β (UniProt Q15759 1-364, limits assumed). Description: cell-based or functional assay.
p38β, sequence (Q15759 whole entry): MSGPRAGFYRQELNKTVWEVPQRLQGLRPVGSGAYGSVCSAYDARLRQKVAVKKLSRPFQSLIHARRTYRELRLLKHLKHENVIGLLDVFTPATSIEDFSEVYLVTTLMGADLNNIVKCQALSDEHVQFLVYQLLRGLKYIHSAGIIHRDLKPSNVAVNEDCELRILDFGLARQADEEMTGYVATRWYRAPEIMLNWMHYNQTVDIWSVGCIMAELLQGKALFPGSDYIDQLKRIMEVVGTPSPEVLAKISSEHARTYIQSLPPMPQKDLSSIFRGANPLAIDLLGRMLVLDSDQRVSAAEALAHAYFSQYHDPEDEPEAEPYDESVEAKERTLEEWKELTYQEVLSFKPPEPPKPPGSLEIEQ
Assay [4] addresses T3, MAP kinase p38α, 6-his C-myc tagged …. Description: biochemical kinase inhibition assay; biochemical enzyme assay, not Biacore.
For assay [5], the target named is 6 kinases (of the selectivity panel, with slight activity). As to the kind of experiment: cell-based or functional assay.

Where no end group is shown, it is not given here.

T1 sequence (Q16539 2-360 limits assumed): as the sequence (Q16539 2-360 limits assumed) above
T2 sequence (Q16539 2-360 limits assumed): as above

B1: BB2702 (N-acetylated peptide HKSRALLIFQKIMWLRRQ) (peptide)
peptide: Ac-HKSRALLIFQKIMWLRRQ
notes: Synthetic peptide, all L-amino acids, peptide bonds throughout, N-acetylated; also called BB2702 peptide
In the case of B1, the equilibrium dissociation constant (Kd) is 25 nM in assay [1] and < 1000 nM in assay [2]. Also, the “IC50 (inhibition of MAP kinase p38α)” value in assay [3] is 7 nM. In assay [3], the “IC50 for inhibition of the activation of MAP kinase p38α by MKK6” value stood at 1 nM. For the same molecule, the “selectivity (kinase inhibition) compared to p38α” value in the assay with p38β amounted to 100 fold. The molecule also showed a Ki in assay [4] of 7 nM.

In assay [5], Ac-HKSRALLIFQKIMWLRRQ [BB2702 (N-acetylated peptide …)] had a selectivity (kinase inhibition) compared to p38α of 500 to 1000 fold.
